Measured values as given in PMC2169300, “Signal-Regulated Pre-mRNA Occupancy by the General Splicing Factor U2AF”.

Assays:
His-Sam68 [1] = biological target: T1, His-Sam68 (mouse, UniProt Q60749 1-443); test: EMSA; dose-dependent; EMSA as described in cited ref [19]; buffer, salt, pH and temperature not given; conditions: protein: recombinant; tags: His (pQE-32); chain copies: 2
His-Sam68 [2] = biological target: T1, His-Sam68; test: EMSA; 25 and 50 ng protein; EMSA as described in cited ref [19]; buffer, salt, pH and temperature not given; conditions: protein: recombinant; tags: His (pQE-32); chain copies: 2

T1 sequence (Q60749 whole entry): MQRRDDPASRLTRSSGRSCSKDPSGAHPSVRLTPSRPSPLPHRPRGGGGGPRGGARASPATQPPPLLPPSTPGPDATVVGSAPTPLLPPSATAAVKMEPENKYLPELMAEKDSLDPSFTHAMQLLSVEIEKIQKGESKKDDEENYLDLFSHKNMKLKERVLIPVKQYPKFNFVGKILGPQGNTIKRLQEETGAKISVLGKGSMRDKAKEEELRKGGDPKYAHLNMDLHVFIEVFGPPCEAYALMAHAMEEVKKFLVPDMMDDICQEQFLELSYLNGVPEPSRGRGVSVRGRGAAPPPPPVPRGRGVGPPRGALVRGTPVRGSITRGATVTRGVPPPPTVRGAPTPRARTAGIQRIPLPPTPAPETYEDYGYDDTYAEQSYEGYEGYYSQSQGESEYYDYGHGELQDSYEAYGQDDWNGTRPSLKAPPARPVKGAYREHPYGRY

Binder | binding result (His-Sam68 [1]) | binding result (His-Sam68 [2])
GAAGAAGAGGAUUAUUAAAGACUAUUUGAUUAGA (ssRNA) [CD44 intronic Sam68 site RNA (wt)] | binds | –
AUAGACAGAAUCAGCACCAGUGCUCAUGGAGAAAAUUGGACC (ssRNA) [CD44 v5 exonic Sam68 site RNA] | – | binds
